Reference: IntAct's records for PubMed 23851574

B1: AP-1 complex subunit gamma-like 2 (Homo sapiens), O75843 (parent)
chain: MVVPSLKLQDLIEEIRGAKTQAQEREVIQKECAHIRASFRDGDPVHRHRQLAKLLYVHMLGYPAHFGQMECLKLIASSRFTDKRVGYLGAMLLLDERHDAHLLITNSIKNDLSQGIQPVQGLALCTLSTMGSAEMCRDLAPEVEKLLLQPSPYVRKKAILTAVHMIRKVPELSSVFLPPCAQLLHERHHGILLGTITLITELCERSPAALRHFRKVVPQLVHILRTLVTMGYSTEHSISGVSDPFLQVQILRLLRILGRNHEESSETMNDLLAQVATNTDTSRNAGNAVLFETVLTIMDIRSAAGLRVLAVNILGRFLLNSDRNIRYVALTSLLRLVQSDHSAVQRHRPTVVECLRETDASLSRRALELSLALVNSSNVRAMMQELQAFLESCPPDLRADCASGILLAAERFAPTKRWHIDTILHVLTTAGTHVRDDAVANLTQLIGGAQELHAYSVRRLYNALAEDISQQPLVQVAAWCIGEYGDLLLAGNCEEIEPLQVDEEEVLALLEKVLQSHMSLPATRGYALTALMKLSTRLCGDNNRIRQVVSIYGSCLDVELQQRAVEYDTLFRKYDHMRAAILEKMPLVERDGPQADEEAKESKEAAQLSEAAPVPTEPQASQLLDLLDLLDGASGDVQHPPHLDPSPGGALVHLLDLPCVPPPPAPIPDLKVFEREGVQLNLSFIRPPENPALLLITITATNFSEGDVTHFICQAAVPKSLQLQLQAPSGNTVPARGGLPITQLFRILNPNKAPLRLKLRLTYDHFHQSVQEIFEVNNLPVESWQ
B2: Large envelope protein (Hepatitis B virus genotype D subtype adw (isolate United Kingdom/adyw/1979)), P03139-1 (parent)
chain: MGQNLSTSNPLGFFPDHQLDPAFRANTNNPDWDFNPNKDTWPDANKVGAGAFGLGFTPPHGGLLGWSPQAQGIMQTLPANPPPASTNRQSGRQPTPLSPPLRTTHPQAMHWNSTTFHQTLQDPRVRGLYFPAGGSSSGTVNPVPTTTSPISSIFSRIGDPALNMENITSGFLGPLLVLQAGFFLLTRILTIPQSLDSWWTSLNFLGGTTVCLGQNSQSPISNHSPTSCPPTCPGYRWMCLRRFIIFLFILLLCLIFLLVLLDYQGMLPVCPLIPGSSTTSTGSCRTCTTPAQGISMYPSCCCTKPSDGNCTCIPIPSSWAFGKFLWEWASARFSWLSLLVPFVQWFVGLSPIVWLSVIWMMWYWGPSLYSILSPFLPLLPIFFCLWAYI
partner: B1 chain

Variants of: B1
Conditions: with S

A716G was tested. Which “effect of a mutation on the interaction” value did it give?
The value was “decreasing interaction strength”.

K719Q was tested. Which “effect of a mutation on the interaction” value did it give?
The value was “decreasing interaction strength”.

With S720A as the variant, how does the “effect of a mutation on the interaction” value read?
Its value is “decreasing interaction strength”.

P754A was tested. Which “effect of a mutation on the interaction” value did it give?
Its value is “decreasing interaction strength”.

For R756A, which “effect of a mutation on the interaction” value is on record?
The value was “decreasing interaction strength”.

R756Q was tested. Which “effect of a mutation on the interaction” value did it give?
Its value is “decreasing interaction strength”.

How did the “effect of a mutation on the interaction” value turn out when R760A was run?
Its value is “decreasing interaction strength”.

Variants of: B2
Conditions: with ap1g2_human AP1G2, O75843

D31A was tested. Which “effect of a mutation on the interaction” value did it give?
The value was “decreasing interaction strength”.

Which “effect of a mutation on the interaction” value does the source give for D33A here?
Its value is “decreasing interaction strength”.

For W32A, which “effect of a mutation on the interaction” value is on record?
The value was “decreasing interaction strength”.

Which “effect of a mutation on the interaction” value does the source give for F34A here?
The value was “decreasing interaction strength”.
